Results published in patent CN114195896A (AQUILARIA SINENSIS QINGSU BIOTECHNOLOGY CO LTD, dated 2022).

B1: 商业化BCMA抗原蛋白 (ACRO BIOSYSTEMS, 货号BCA-H522y-1mg) (receptor, UniProt Q02223 1-54, looked up)
chain: MLQMAGQCSQNEYFDSLLHACIPCQLRCSSNTPPLTCQRYCNASVTNSVKGTNA
notes: also called 目标抗原BCMA; 靶蛋白BCMA
B2: 16-B7重组抗体 (16-B7 recombinant antibody, VHH fused to hIgG1 Fc) (Fc fusion)
chain: QARFVESGGGLVQSGGSLVLSCTVSDVTLDDYVTAWFRQAPGKEREGVSCISKRNFTSYVDSVKGRFTTSRDITKNTVLLQMNALTPEDTGVYYCATPILPSLAFGEVCSLQTEFRSWGPGTRVTVSS
notes: also called 16-B7纯化重组抗体; 原始序列16-B7; not shown: human IgG1 Fc from the expression vector pcDNA3.1-hIgG1-Fc2

How the values were obtained:
[1] = biological target: T1, 16-B7-HM4人源化重组抗体 (humanised 16-B7-HM4 recombinant antibody, VHH fused to hIgG1 Fc) (human, UniProt P01857-1 99-330 = IgG part, limits assumed); assay: SPR, BCMA immobilised on the chip, recombinant antibody as the mobile phase
T1 construct: domain: Fc; also called 人源化重组抗体16-B7-HM4
T1 sequence (P01857 other isoform, or with tags, fused parts or gaps limits assumed): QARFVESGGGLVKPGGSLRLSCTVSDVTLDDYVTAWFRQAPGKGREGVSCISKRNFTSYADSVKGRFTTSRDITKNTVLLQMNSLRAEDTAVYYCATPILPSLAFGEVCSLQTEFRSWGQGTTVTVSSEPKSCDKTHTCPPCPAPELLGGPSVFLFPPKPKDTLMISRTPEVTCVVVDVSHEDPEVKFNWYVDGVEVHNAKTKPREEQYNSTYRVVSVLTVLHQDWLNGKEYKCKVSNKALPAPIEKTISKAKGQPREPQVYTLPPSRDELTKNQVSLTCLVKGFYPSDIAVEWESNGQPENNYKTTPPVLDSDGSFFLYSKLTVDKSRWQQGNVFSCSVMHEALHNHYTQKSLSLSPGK

[2] = biological target: B1; assay: as above
[3] = biological target: BCMA expressed on recombinant cells (CHO-BCMA; Nalm6-BCMA-LUC) (UniProt Q02223); assay: flow cytometry on CHO-BCMA cells, purified antibody at 10, 2, 0.4 and 0.08 μg/mL

Binder | Kd [1] | Kd [2] | antibody concentration at saturation [3]
B1 | 1.06 nM |  | 
B2 |  | 3.73 nM | 2 µg/mL
